Assay results published in paper PMC11724271.
“And” between values parts separate entries of the source, which are not always exact repeats. Identical values can stand only once.

Molecular target: CdiA-CT^EC536_H178A (catalytically inactive C-terminal toxin domain of CdiA from uropathogenic E. coli 536) (uropathogenic Escherichia coli 536)
Assay: cryo-EM structure

B1: O-acetylserine sulfhydrylase A (CysK) (enzyme)
chain: MSKIFEDNSLTIGHTPLVRLNRIGNGRILAKVESRNPSFSVKCRIGANMIWDAEKRGVLKPGVELVEPTSGNTGIALAYVAAARGYKLTLTMPETMSIERRKLLKALGANLVLTEGAKGMKGAIQKAEEIVASNPEKYLLLQQFSNPANPEIHEKTTGPEIWEDTDGQVDVFIAGVGTGGTLTGVSRYIKGTKGKTDLISVAVEPTDSPVIAQALAGEEIKPGPHKIQGIGAGFIPANLDLKLVDKVIGITNEEAISTARRLMEEEGILAGISSGAAVAAALKLQEDESFTNKNIVVILPSSGERYLSTALFADLFTEKELQQ
modifications: PLP (N'-pyridoxyl-lysine-5'-monophosphate); position not given
  stoichiometry N (CysK per CdiA-CT): 2 and 1
